From US20100076062

Columns and labels:
[1] = target: HA-tagged human eIF5A1 (wild type), in vitro translated from pHM6-HA-A1
[2] = target: HA-tagged human eIF5A1D6E, in vitro translated from pHM6-HA-A1(D6E)
[3] = target: HA-tagged human eIF5A1D6E/K50R, in vitro translated from pHM6-HA-A1(D6E/K50R)

Row | Protein | in vitro cleavage of the biotin-labelled translation product by recombinant caspase (SDS-PAGE, Streptavidin-HRP) [1] | in vitro cleavage of the biotin-labelled translation product by recombinant caspase (SDS-PAGE, Streptavidin-HRP) [2] | in vitro cleavage of the biotin-labelled translation product by recombinant caspase (SDS-PAGE, Streptavidin-HRP) [3]
1 | recombinant caspase 8 (Calbiochem) (protein) SESQTLDKVYQMKSKPRGYCLIINNHNFAKAREKVPKLHSIRDRNGTHLDAGALTTTFEELHFEIKPHDDCTVEQIYEILKIYQLMDHSNMDCFICCILSHGDKGIIYGTDGQEAPIYELTSQFTGLKCPSLAGKPKVFFIQACQGDNYQKGIPVETDSEEQPYLEMDLSSPQTRYIPDEADFLLGMATVNNCVSYRNPAEGTWYIQSLCQSLRERCPRGDDILTILTEVNYEVSNKDDKKNMGKQMPQPTFTLRKKLVFPSD | The wild-type eIF5A1 is cleaved by caspases 2, 3, 6, 7, 8, 9, and 10 | HA-tagged eIF5A1D6E and eIF5A1D6E/K50R are effectively cleaved in vitro by caspases 3, 7 and 8 | HA-tagged eIF5A1D6E and eIF5A1D6E/K50R are effectively cleaved in vitro by caspases 3, 7 and 8
2 | recombinant caspase 3 (Calbiochem) (protein) SGISLDNSYKMDYPEMGLCIIINNKNFHKSTGMTSRSGTDVDAANLRETFRNLKYEVRNKNDLTREEIVELMRDVSKEDHSKRSSFVCVLLSHGEEGIIFGTNGPVDLKKITNFFRGDRCRSLTGKPKLFIIQACRGTELDCGIETDSGVDDDMACHKIPVEADFLYAYSTAPGYYSWRNSKDGSWFIQSLCAMLKQYADKLEFMHILTRVNRKVATEFESFSFDATFHAKKQIPCIVSMLTKELYFYH | The wild-type eIF5A1 is cleaved by caspases 2, 3, 6, 7, 8, 9, and 10 | – | –
3 | recombinant caspase 7 (Calbiochem) (protein) AKPDRSSFVPSLFSKKKKNVTMRSIKTTRDRVPTYQYNMNFEKLGKCIIINNKNFDKVTGMGVRNGTDKDAEALFKCFRSLGFDVIVYNDCSCAKMQDLLKKASEEDHTNAACFACILLSHGEENVIYGKDGVTPIKDLTAHFRGDRCKTLLEKPKLFFIQACRGTELDDGIQADSGPINDTDANPRYKIPVEADFLFAYSTVPGYYSWRSPGRGSWFVQALCSILEEHGKDLEIMQILTRVNDRVARHFESQSDDPHFHEKKQIPCVVSMLTKELYFSQ | The wild-type eIF5A1 is cleaved by caspases 2, 3, 6, 7, 8, 9, and 10 | – | –
4 | recombinant caspase 9 (Calbiochem) (protein) MDEADRRLLRRCRLRLVEELQVDQLWDALLSRELFRPHMIEDIQRAGSGSRRDQARQLIIDLETRGSQALPLFISCLEDTGQDMLASFLRTNRQAAKLSKPTLENLTPVVLRPEIRKPEVLRPETPRPVDIGSGGFGDVGALESLRGNADLAYILSMEPCGHCLIINNVNFCRESGLRTRTGSNIDCEKLRRRFSSLHFMVEVKGDLTAKKMVLALLELAQQDHGALDCCVVVILSHGCQASHLQFPGAVYGTDGCPVSVEKIVNIFNGTSCPSLGGKPKLFFIQACGGEQKDHGFEVASTSPEDESPGSNPEPDATPFQEGLRTFDQLDAISSLPTPSDIFVSYSTFPGFVSWRDPKSGSWYVETLDDIFEQWAHSEDLQSLLLRVANAVSVKGIYKQMPGCFNFLRKKLFFKTS | The wild-type eIF5A1 is cleaved by caspases 2, 3, 6, 7, 8, 9, and 10 | are not efficiently cleaved by caspases 9 and 10 | are not efficiently cleaved by caspases 9 and 10
5 | recombinant caspase 10 (Calbiochem) (protein) VKTFLEALPQESWQNKHAGSNGNRATNGAPSLVSRGMQGASANTLNSETSTKRAAVYRMNRNHRGLCVIVNNHSFTSLKDRQGTHKDAEILSHVFQWLGFTVHIHNNVTKVEMEMVLQKQKCNPAHADGDCFVFCILTHGRFGAVYSSDEALIPIREIMSHFTALQCPRLAEKPKLFFIQACQGEEIQPSVSIEADALNPEQAPTSLQDSIPAEADFLLGLATVPGYVSFRHVEEGSWYIQSLCNHLKKLVPRMLKFLEKTMEIRGRKRTVWGAKQISATSLPTAISAQTPRPPMRRWSSVS | The wild-type eIF5A1 is cleaved by caspases 2, 3, 6, 7, 8, 9, and 10 | are not efficiently cleaved by caspases 9 and 10 | are not efficiently cleaved by caspases 9 and 10
6 | recombinant caspase 1 (Calbiochem) (protein) NPAMPTSSGSEGNVKLCSLEEAQRIWKQKSAEIYPIMDKSSRTRLALIICNEEFDSIPRRTGAEVDITGMTMLLQNLGYSVDVKKNLTASDMTTELEAFAHRPEHKTSDSTFLVFMSHGIREGICGKKHSEQVPDILQLNAIFNMLNTKNCPSLKDKPKVIIIQACRGDSPGVVWFKDSVGVSGNLSLPTTEEFEDDAIKKAHIEKDFIAFCSSTPDNVSWRHPTMGSVFIGRLIEHMQEYACSCDVEEIFRKVRFSFEQPDGRAQMPTTERVTLTRCFYLFPGH | The wild-type eIF5A1 is cleaved by caspases 2, 3, 6, 7, 8, 9, and 10 but not by caspase 1 | – | –
7 | recombinant caspase 2 (Calbiochem) (protein) GPVCLQVKPCTPEFYQTHFQLAYRLQSRPRGLALVLSNVHFTGEKELEFRSGGDVDHSTLVTLFKLLGYDVHVLCDQTAQEMQEKLQNFAQLPAHRVTDSCIVALLSHGVEGAIYGVDGKLLQLQEVFQLFDNANCPSLQNKPKMFFIQACRGDETDRGVDQQDGKNHAGSPGCEESDAGKEKLPKMRLPTRSDMICGYACLKGTAAMRNTKRGSWYIEALAQVFSERACDMHVADMLVKVNALIKDREGYAPGTEFHRCKEMSEYCSTLCRHLYLFPGHPPT | The wild-type eIF5A1 is cleaved by caspases 2, 3, 6, 7, 8, 9, and 10 | – | –
8 | recombinant caspase 6 (Calbiochem) (protein) AFYKREMFDPAEKYKMDHRRRGIALIFNHERFFWHLTLPERRGTCADRDNLTRRFSDLGFEVKCFNDLKAEELLLKIHEVSTVSHADADCFVCVFLSHGEGNHIYAYDAKIEIQTLTGLFKGDKCHSLVGKPKIFIIQACRGNQHDVPVIPLDVVDNQTEKLDTNITEVDAASVYTLPAGADFLMCYSVAEGYYSHRETVNGSWYIQDLCEMLGKYGSSLEFTELLTLVNRKVSQRRVDFCKDPSAIGKKQVPCFASMLTKKLHFFPKSN | The wild-type eIF5A1 is cleaved by caspases 2, 3, 6, 7, 8, 9, and 10 | – | –
